Consider one protein from article PMC3791895 (mBio, 2013).

The data set deals with the molecule itself. Description: SEC.

B1: Enterococcus faecalis FabI enoyl-ACP reductase (enzyme, UniProt Q820V5 1-250, looked up)
chain: MFLQNKNVVVMGVANKKSIAWGCAKALKDQGANVIYTYQNERMKKQVVKLADENDLLVECDVASDASIQAAFETIKNEVGTIDGLVHAIAFAKKEELSGNVSDITRDGFLLAQDISSYSLLAVTHYAKPLLNPGSGIVTLTYLGSERAIPNYNMMGIAKASLETAVKYLAFELAADKIRVNGISAGAIKTLAVTGVKDYDQLISISNERTPDKTGVTIEEVGNTCAFLVSDLASGVVGDIIYVDKGVHLT
With B1, the “stoichiometry N” value stood at 2.
